Publication PMC11997821

Columns and labels:
[1] = target: BsaXI S subunit (476-residue specificity subunit of R.M.BsaXI) (Bacillus stearothermophilus); assay: single-particle EM, 2D classification of particles (negative stain and cryo-EM); DNA-free and DNA-bound BsaXI particles, twice selected
[2] = target: BsaXI S subunit (476-residue specificity subunit of R.M.BsaXI) (Bacillus stearothermophilus); assay: SEC; Superdex75 column in NEB Diluent B; pooled, separately expressed RM and S subunits after chitin, DEAE, heparin and Source columns

stoichiometry N (RM subunits per S subunit) [1]: 2 | stoichiometry N (RM subunits per S subunit) [2]: 2
Substance: BsaXI RM subunit (916-residue RM fusion subunit of the Type IIB restriction-modification enzyme R.M.BsaXI)
